Experimental data reported in patent US11345725B2, “Bis-thioether stapled peptides as inhibitors of PRC2 function” (Research Foundation of the City University of New York, priority 2019, dated 2022).
Starred links: 1 amine or outer side, 2 acyl side, 3 side chain; linkers in the order of their positions; H or OH if unused. Positions of bridges follow the written chain, without caps; N, C: chain ends. Residues, ends and D or L forms follow the SMILES beside them. Octanediyl(1,8) = C(CCCC[*:2])CCC[*:1]; X5 = C(CCC[*:1])CCC[*:2]; X6 = C(=C\C[*:2])/C[*:1]; X4 = C(CCC[*:2])CC[*:1]; X2 = C(CC[*:1])CC[*:2]; X3 = C(CC[*:2])C[*:1]; X1 = C(C[*:1])C[*:2]

Assay: circular dichroism
Conditions: deionized water; pH unbuffered; 20 °C; 25 uM

Compound | helicity [%]
CC[C@H](C)[C@H](NC(=O)[C@H](CCCCN)NC(=O)[C@H](CC(=O)O)NC(=O)[C@@H](NC(=O)[C@@H](NC(C)=O)[C@@H](C)O)C(C)C)C(=O)N[C@@H](C)C(=O)N[C@@H](CO)C(=O)N[C@@H](C)C(=O)N[C@H]1CSCCCCCCCSC[C@@H](C(=O)N2CCC[C@H]2C(=O)N[C@@H](CCC(N)=O)C(=O)N[C@@H](CC(N)=O)C(N)=O)NC(=O)[C@H](CCC(=O)O)NC(=O)[C@H](CCC(=O)O)NC(=O)[C@H](C)NC(=O)[C@H](CC(C)C)NC(=O)[C@H](C(C)C)NC(=O)[C@H](CO)NC1=O (Ac-TVDKIASACSVLAEECPQN-NH2; linker 9-16 via X5) | 13.7
CC[C@H](C)[C@H](NC(=O)[C@@H]1CSCCCSC[C@H](NC(=O)[C@@H](NC(=O)[C@@H](NC(C)=O)C(C)C)[C@@H](C)CC)C(=O)N[C@@H](CCC(=O)O)C(=O)N[C@@H](CCC(=O)O)C(=O)N[C@@H](Cc2ccc(O)cc2)C(=O)N1)C(=O)N[C@@H](Cc1c[nH]c2ccccc12)C(=O)N[C@@H](CCCCN)C(=O)N[C@@H](CCCCN)C(=O)N[C@@H](CC(N)=O)C(=O)N[C@H](C(=O)N1CCC[C@H]1C(=O)N[C@@H](Cc1ccccc1)C(=O)N[C@@H](CC(C)C)C(N)=O)[C@@H](C)O (Ac-VICEEYCIWKKNTPFL-NH2; linker 3-7 via X1) | 12.7
CC[C@H](C)[C@@H]1NC(=O)[C@@H](NC(=O)[C@H](Cc2ccc(O)cc2)NC(=O)[C@H](CCC(=O)O)NC(=O)[C@H](CCC(=O)O)NC(=O)[C@H](CC(N)=O)NC(=O)[C@@H](NC(=O)[C@@H](NC(C)=O)C(C)C)[C@@H](C)CC)CSCCCCCCSC[C@@H](C(=O)N[C@@H](CC(N)=O)C(=O)N[C@H](C(=O)N2CCC[C@H]2C(=O)N[C@@H](Cc2ccccc2)C(=O)N[C@@H](CC(C)C)C(N)=O)[C@@H](C)O)NC(=O)[C@H](CCCCN)NC(=O)[C@H](Cc2c[nH]c3ccccc23)NC1=O (Ac-VINEEYCIWKCNTPFL-NH2; linker 7-11 via X4) | 19.4
CC[C@H](C)[C@H](NC(=O)[C@H](CCCCN)NC(=O)[C@H](CC(=O)O)NC(=O)[C@@H](NC(=O)[C@@H](NC(C)=O)[C@@H](C)O)C(C)C)C(=O)N[C@@H](C)C(=O)N[C@@H](CO)C(=O)N[C@@H](C)C(=O)N[C@H]1CSCCCCCCCCSC[C@@H](C(=O)N2CCC[C@H]2C(=O)N[C@@H](CCC(N)=O)C(=O)N[C@@H](CC(N)=O)C(N)=O)NC(=O)[C@H](CCC(=O)O)NC(=O)[C@H](CCC(=O)O)NC(=O)[C@H](C)NC(=O)[C@H](CC(C)C)NC(=O)[C@H](C(C)C)NC(=O)[C@H](CO)NC1=O (Ac-TVDKIASACSVLAEECPQN-NH2; linker 9-16 via Octanediyl(1,8)) | 12.1
CC[C@H](C)[C@@H]1NC(=O)[C@@H](NC(=O)[C@H](CC(=O)O)NC(=O)[C@@H](NC(=O)[C@@H](NC(C)=O)[C@@H](C)O)C(C)C)CSCCCSC[C@@H](C(=O)N[C@@H](CC(C)C)C(=O)N[C@@H](CO)C(=O)N[C@H](C(=O)N[C@@H](CC(C)C)C(=O)N[C@@H](C)C(=O)N[C@@H](CCC(=O)O)C(=O)N[C@@H](CCC(=O)O)C(=O)N[C@H](C(=O)N2CCC[C@H]2C(=O)N[C@@H](CCC(N)=O)C(=O)N[C@@H](CC(N)=O)C(N)=O)C(C)C)C(C)C)NC(=O)[C@H](CO)NC(=O)[C@H](C)NC1=O (Ac-TVDCIASCLSVLAEEVPQN-NH2; linker 4-8 via X1) | 23
CC[C@H](C)[C@H](NC(=O)[C@H](CC(C)C)NC(=O)[C@H](Cc1ccccc1)NC(=O)[C@H](CC(=O)O)NC(=O)[C@H](Cc1c[nH]cn1)NC(=O)[C@H](CCSC)NC(=O)[C@H](CO)NC(=O)[C@@H](NC(=O)[C@@H]1CSCCCCCSC[C@H](NC(=O)[C@H](CC(N)=O)NC(=O)[C@H](CCCNC(=N)N)NC(=O)[C@H](CS)NC(=O)[C@H](CC(C)C)NC(C)=O)C(=O)N[C@@H](CCSC)C(=O)N[C@@H](CC(C)C)C(=O)N[C@@H](Cc2c[nH]cn2)C(=O)N1)C(C)C)C(N)=O (Ac-LCRNCMLHCVSMHDFLI-NH2; linker 5-9 via X2) | 61.6
CC[C@H](C)[C@@H]1NC(=O)[C@@H](NC(=O)[C@H](CC(=O)O)NC(=O)[C@@H](NC(=O)[C@@H](NC(C)=O)[C@@H](C)O)C(C)C)CSCCCCCSC[C@@H](C(=O)N[C@@H](CC(C)C)C(=O)N[C@@H](CO)C(=O)N[C@H](C(=O)N[C@@H](CC(C)C)C(=O)N[C@@H](C)C(=O)N[C@@H](CCC(=O)O)C(=O)N[C@@H](CCC(=O)O)C(=O)N[C@H](C(=O)N2CCC[C@H]2C(=O)N[C@@H](CCC(N)=O)C(=O)N[C@@H](CC(N)=O)C(N)=O)C(C)C)C(C)C)NC(=O)[C@H](CO)NC(=O)[C@H](C)NC1=O (Ac-TVDCIASCLSVLAEEVPQN-NH2; linker 4-8 via X2) | 9
CC[C@H](C)[C@@H]1NC(=O)[C@@H](NC(=O)[C@H](Cc2ccc(O)cc2)NC(=O)[C@H](CCC(=O)O)NC(=O)[C@H](CCC(=O)O)NC(=O)[C@H](CC(N)=O)NC(=O)[C@@H](NC(=O)[C@@H](NC(C)=O)C(C)C)[C@@H](C)CC)CSCCCSC[C@@H](C(=O)N[C@@H](CC(N)=O)C(=O)N[C@H](C(=O)N2CCC[C@H]2C(=O)N[C@@H](Cc2ccccc2)C(=O)N[C@@H](CC(C)C)C(N)=O)[C@@H](C)O)NC(=O)[C@H](CCCCN)NC(=O)[C@H](Cc2c[nH]c3ccccc23)NC1=O (Ac-VINEEYCIWKCNTPFL-NH2; linker 7-11 via X1) | 18.4
CC[C@H](C)[C@H](NC(=O)[C@@H]1CSC/C=C/CSC[C@H](NC(=O)[C@@H](NC(=O)[C@@H](NC(C)=O)C(C)C)[C@@H](C)CC)C(=O)N[C@@H](CCC(=O)O)C(=O)N[C@@H](CCC(=O)O)C(=O)N[C@@H](Cc2ccc(O)cc2)C(=O)N1)C(=O)N[C@@H](Cc1c[nH]c2ccccc12)C(=O)N[C@@H](CCCCN)C(=O)N[C@@H](CCCCN)C(=O)N[C@@H](CC(N)=O)C(=O)N[C@H](C(=O)N1CCC[C@H]1C(=O)N[C@@H](Cc1ccccc1)C(=O)N[C@@H](CC(C)C)C(N)=O)[C@@H](C)O (Ac-VICEEYCIWKKNTPFL-NH2; linker 3-7 via X6) | 19
CC[C@H](C)[C@@H]1NC(=O)[C@@H](NC(=O)[C@H](Cc2ccc(O)cc2)NC(=O)[C@H](CCC(=O)O)NC(=O)[C@H](CCC(=O)O)NC(=O)[C@H](CC(N)=O)NC(=O)[C@@H](NC(=O)[C@@H](NC(C)=O)C(C)C)[C@@H](C)CC)CSC/C=C/CSC[C@@H](C(=O)N[C@@H](CC(N)=O)C(=O)N[C@H](C(=O)N2CCC[C@H]2C(=O)N[C@@H](Cc2ccccc2)C(=O)N[C@@H](CC(C)C)C(N)=O)[C@@H](C)O)NC(=O)[C@H](CCCCN)NC(=O)[C@H](Cc2c[nH]c3ccccc23)NC1=O (Ac-VINEEYCIWKCNTPFL-NH2; linker 7-11 via X6) | 24.2
CC[C@H](C)[C@@H]1NC(=O)[C@@H](NC(=O)[C@H](Cc2ccc(O)cc2)NC(=O)[C@H](CCC(=O)O)NC(=O)[C@H](CCC(=O)O)NC(=O)[C@H](CC(N)=O)NC(=O)[C@@H](NC(=O)[C@@H](NC(C)=O)C(C)C)[C@@H](C)CC)CSCCCCCSC[C@@H](C(=O)N[C@@H](CC(N)=O)C(=O)N[C@H](C(=O)N2CCC[C@H]2C(=O)N[C@@H](Cc2ccccc2)C(=O)N[C@@H](CC(C)C)C(N)=O)[C@@H](C)O)NC(=O)[C@H](CCCCN)NC(=O)[C@H](Cc2c[nH]c3ccccc23)NC1=O (Ac-VINEEYCIWKCNTPFL-NH2; linker 7-11 via X2) | 5.68
CC[C@H](C)[C@H](NC(=O)[C@H](CCCCN)NC(=O)[C@H](CC(=O)O)NC(=O)[C@@H](NC(=O)[C@@H](NC(C)=O)[C@@H](C)O)C(C)C)C(=O)N[C@@H](C)C(=O)N[C@@H](CO)C(=O)N[C@@H](C)C(=O)N[C@H]1CSCCCCCCSC[C@@H](C(=O)N2CCC[C@H]2C(=O)N[C@@H](CCC(N)=O)C(=O)N[C@@H](CC(N)=O)C(N)=O)NC(=O)[C@H](CCC(=O)O)NC(=O)[C@H](CCC(=O)O)NC(=O)[C@H](C)NC(=O)[C@H](CC(C)C)NC(=O)[C@H](C(C)C)NC(=O)[C@H](CO)NC1=O (Ac-TVDKIASACSVLAEECPQN-NH2; linker 9-16 via X4) | 8.7
CC[C@H](C)[C@H](NC(=O)[C@@H]1CSCCCCCSC[C@H](NC(=O)[C@@H](NC(=O)[C@@H](NC(C)=O)C(C)C)[C@@H](C)CC)C(=O)N[C@@H](CCC(=O)O)C(=O)N[C@@H](CCC(=O)O)C(=O)N[C@@H](Cc2ccc(O)cc2)C(=O)N1)C(=O)N[C@@H](Cc1c[nH]c2ccccc12)C(=O)N[C@@H](CCCCN)C(=O)N[C@@H](CCCCN)C(=O)N[C@@H](CC(N)=O)C(=O)N[C@H](C(=O)N1CCC[C@H]1C(=O)N[C@@H](Cc1ccccc1)C(=O)N[C@@H](CC(C)C)C(N)=O)[C@@H](C)O (Ac-VICEEYCIWKKNTPFL-NH2; linker 3-7 via X2) | 11
Ac-LCRNFMLHLVSMHDFLI-NH2 | 59.9
CC[C@H](C)[C@H](NC(=O)[C@H](CCC(N)=O)NC(=O)[C@@H](NC(=O)[C@@H]1CSCCCSC[C@H](NC(=O)[C@H](CC(C)C)NC(=O)[C@H](Cc2c[nH]c3ccccc23)NC(=O)[C@H](CCC(=O)O)NC(C)=O)C(=O)N[C@@H](CCC(=O)O)C(=O)N[C@@H](CCCCN)C(=O)N[C@@H]([C@@H](C)O)C(=O)N1)[C@@H](C)O)C(=O)N[C@@H](CCC(=O)O)C(=O)N[C@@H](CCC(=O)O)C(=O)N[C@@H](Cc1ccccc1)C(N)=O (Ac-EWLCEKTCTQIEEF-NH2; linker 4-8 via X1) | 38.4
CC[C@H](C)[C@H](NC(=O)[C@@H]1CSCCCCSC[C@H](NC(=O)[C@@H](NC(=O)[C@@H](NC(C)=O)C(C)C)[C@@H](C)CC)C(=O)N[C@@H](CCC(=O)O)C(=O)N[C@@H](CCC(=O)O)C(=O)N[C@@H](Cc2ccc(O)cc2)C(=O)N1)C(=O)N[C@@H](Cc1c[nH]c2ccccc12)C(=O)N[C@@H](CCCCN)C(=O)N[C@@H](CCCCN)C(=O)N[C@@H](CC(N)=O)C(=O)N[C@H](C(=O)N1CCC[C@H]1C(=O)N[C@@H](Cc1ccccc1)C(=O)N[C@@H](CC(C)C)C(N)=O)[C@@H](C)O (Ac-VICEEYCIWKKNTPFL-NH2; linker 3-7 via X3) | 11.5
CC[C@H](C)[C@@H]1NC(=O)[C@@H](NC(=O)[C@H](Cc2ccc(O)cc2)NC(=O)[C@H](CCC(=O)O)NC(=O)[C@H](CCC(=O)O)NC(=O)[C@H](CC(N)=O)NC(=O)[C@@H](NC(=O)[C@@H](NC(C)=O)C(C)C)[C@@H](C)CC)CSCCCCSC[C@@H](C(=O)N[C@@H](CC(N)=O)C(=O)N[C@H](C(=O)N2CCC[C@H]2C(=O)N[C@@H](Cc2ccccc2)C(=O)N[C@@H](CC(C)C)C(N)=O)[C@@H](C)O)NC(=O)[C@H](CCCCN)NC(=O)[C@H](Cc2c[nH]c3ccccc23)NC1=O (Ac-VINEEYCIWKCNTPFL-NH2; linker 7-11 via X3) | 16.5
Ac-EWLREKTITQIEEF-NH2 | 20.9
